Data as given in PMC10866945 (2024).

Legend:
Spike protein RBD = Spike protein RBD (Severe acute respiratory syndrome …, UniProt P0DTC2); experiment: ELISA
Spike protein NTD = Spike protein NTD (Severe acute respiratory syndrome …, UniProt P0DTC2); experiment: ELISA

B1: Asialoglycoprotein receptor 1 (protein)
chain: MTKEYQDLQHLDNEESDHHQLRKGPPPPQPLLQRLCSGPRLLLLSLGLSLLLLVVVCVIGSQNSQLQEELRGLRETFSNFTASTEAQVKGLSTQGGNVGRKMKSLESQLEKQQKDLSEDHSSLLLHVKQFVSDLRSLSCQMAALQGNGSERTCCPVNWVEHERSCYWFSRSGKAWADADNYCRLEDAHLVVVTSWEEQKFVQHHIGPVNTWMGLHDQNGPWKWVDGTDYETGFKNWRPEQPDDWYGHGLGGGEDCAHFTDDGRWNDDVCQRPYRWVCETELDKASQEPPLL
Spike protein RBD
  Kd: 269 nM
Spike protein NTD
  Kd: 179 nM
